What was measured:
Conditions in all cases: 20 nM; 72 h
MCF10A [1] = assay: one-nucleolus phenotype percent effect (relative to siNT 0% and siNOL11 100%); higher = more cells with one nucleolus (ribosome biogenesis inhibition)
Description: (§1)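 After 72 h, cells were fixed and stained with Hoechst and anti-fibrillarin, and nucleoli per nucleus were counted with CellProfiler. Values are plate-adjusted percent effect for the one-nucleolus and 5+ nucleoli phenotypes, normalised to siNT (0%) and to the positive controls siNOL11 or siKIF11 (100%), as the mean of biological triplicates. Percent viability is the nuclei count relative to siNT.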

MCF10A [2] = assay: 5+ nucleoli phenotype percent effect (relative to siNT 0% and siKIF11 100%); higher = more cells with five or more nucleoli
Description: as §1

MCF10A [3] = assay: percent viability (nuclei count relative to siNT); higher = more viable cells
Description: as §1

## AGGCUCUAACUGGCUUUCCCUGCA [hsa-miR-6822-3p]
MCF10A [1]
  one-nucleolus phenotype percent effect: 32.4%
MCF10A [2]
  5+ nucleoli phenotype percent effect: -24.9%
MCF10A [3]
  percent viability: 37.9%

## AGGCUGCGGAAUUCAGGAC [hsa-miR-604]
MCF10A [1]
  one-nucleolus phenotype percent effect: 29.2%
MCF10A [2]
  5+ nucleoli phenotype percent effect: -15.7%
MCF10A [3]
  percent viability: 25.6%

## AGGCUGGAGUGAGCGGAG [hsa-miR-4430]
MCF10A [1]
  one-nucleolus phenotype percent effect: 57.5%
MCF10A [2]
  5+ nucleoli phenotype percent effect: -22%
MCF10A [3]
  percent viability: 12.7%

## AGGCUGGGCUGGGACGGA [hsa-miR-4505]
MCF10A [1]
  one-nucleolus phenotype percent effect: 32.2%
MCF10A [2]
  5+ nucleoli phenotype percent effect: 21.9%
MCF10A [3]
  percent viability: 12.3%

## AGGCUGUGAUGCUCUCCUGAGCCC [hsa-miR-7974]
MCF10A [1]
  one-nucleolus phenotype percent effect: 30.5%
MCF10A [2]
  5+ nucleoli phenotype percent effect: -12%
MCF10A [3]
  percent viability: 22.8%

## AGGGAAAAAAAAAAGGAUUUGUC [hsa-miR-4668-5p]
MCF10A [1]
  one-nucleolus phenotype percent effect: -20.9%
MCF10A [2]
  5+ nucleoli phenotype percent effect: 61.6%
MCF10A [3]
  percent viability: 65%

## AGGGAAGGAGGCUUGGUCUUAG [hsa-miR-4747-5p]
MCF10A [1]
  one-nucleolus phenotype percent effect: -5.76%
MCF10A [2]
  5+ nucleoli phenotype percent effect: 11.6%
MCF10A [3]
  percent viability: 29.6%

## AGGGAAGGGGACGAGGGUUGGG [hsa-miR-5196-5p]
MCF10A [1]
  one-nucleolus phenotype percent effect: 5.32%
MCF10A [2]
  5+ nucleoli phenotype percent effect: 4.34%
MCF10A [3]
  percent viability: 40.5%

## AGGGACCUGAGUGUCUAAG [hsa-miR-3649]
MCF10A [1]
  one-nucleolus phenotype percent effect: 9.08%
MCF10A [2]
  5+ nucleoli phenotype percent effect: -0.628%
MCF10A [3]
  percent viability: 71%

## AGGGACGGGACGCGGUGCAGUG [hsa-miR-92b-5p]
MCF10A [1]
  one-nucleolus phenotype percent effect: 2.12%
MCF10A [2]
  5+ nucleoli phenotype percent effect: 34.3%
MCF10A [3]
  percent viability: 75.4%

## AGGGACUGCCUUAGGAGAAAGUU [hsa-miR-3199]
MCF10A [1]
  one-nucleolus phenotype percent effect: -15.3%
MCF10A [2]
  5+ nucleoli phenotype percent effect: 42.9%
MCF10A [3]
  percent viability: 57.4%

## AGGGACUUUCAGGGGCAGCUGU [hsa-miR-365b-5p]
MCF10A [1]
  one-nucleolus phenotype percent effect: 4.45%
MCF10A [2]
  5+ nucleoli phenotype percent effect: 19.9%
MCF10A [3]
  percent viability: 36.2%

## AGGGACUUUUGGGGGCAGAUGUG [hsa-miR-365a-5p]
MCF10A [1]
  one-nucleolus phenotype percent effect: -13.1%
MCF10A [2]
  5+ nucleoli phenotype percent effect: 58.6%
MCF10A [3]
  percent viability: 56%

## AGGGAGAAAGCUAGAAGCUGAAG [hsa-miR-6878-5p]
MCF10A [1]
  one-nucleolus phenotype percent effect: -18.3%
MCF10A [2]
  5+ nucleoli phenotype percent effect: 44.5%
MCF10A [3]
  percent viability: 72.6%

## AGGGAGGGACGGGGGCUGUGC [hsa-miR-149-3p]
MCF10A [1]
  one-nucleolus phenotype percent effect: 42.9%
MCF10A [2]
  5+ nucleoli phenotype percent effect: -16.6%
MCF10A [3]
  percent viability: 15.1%

## AGGGAGGGUGUGGUAUGGAUGU [hsa-miR-6883-5p]
MCF10A [1]
  one-nucleolus phenotype percent effect: 8.82%
MCF10A [2]
  5+ nucleoli phenotype percent effect: -4.87%
MCF10A [3]
  percent viability: 42%

## AGGGAUCGCGGGCGGGUGGCGGCCU [hsa-miR-638]
MCF10A [1]
  one-nucleolus phenotype percent effect: -7.05%
MCF10A [2]
  5+ nucleoli phenotype percent effect: 9.85%
MCF10A [3]
  percent viability: 88%

## AGGGCAUAGGAGAGGGUUGAUAU [hsa-miR-3945]
MCF10A [1]
  one-nucleolus phenotype percent effect: -1.06%
MCF10A [2]
  5+ nucleoli phenotype percent effect: 34.8%
MCF10A [3]
  percent viability: 27.2%

## AGGGCAUGUCCAGGGGGU [hsa-miR-4253]
MCF10A [1]
  one-nucleolus phenotype percent effect: 18.3%
MCF10A [2]
  5+ nucleoli phenotype percent effect: 17.7%
MCF10A [3]
  percent viability: 28.5%

## AGGGCCAGAGGAGCCUGGAGUGG [hsa-miR-4726-5p]
MCF10A [1]
  one-nucleolus phenotype percent effect: 5.63%
MCF10A [2]
  5+ nucleoli phenotype percent effect: 18.8%
MCF10A [3]
  percent viability: 50.1%

## AGGGCCCCCCCUCAAUCCUGU [hsa-miR-296-5p]
MCF10A [1]
  one-nucleolus phenotype percent effect: 2.62%
MCF10A [2]
  5+ nucleoli phenotype percent effect: 11.6%
MCF10A [3]
  percent viability: 49.5%

## AGGGCCGAAGGGUGGAAGCUGC [hsa-miR-6877-5p]
MCF10A [1]
  one-nucleolus phenotype percent effect: 10.5%
MCF10A [2]
  5+ nucleoli phenotype percent effect: -6.96%
MCF10A [3]
  percent viability: 41.7%

## AGGGCUGGACUCAGCGGCGGAGCU [hsa-miR-5001-5p]
MCF10A [1]
  one-nucleolus phenotype percent effect: 23.3%
MCF10A [2]
  5+ nucleoli phenotype percent effect: -6.45%
MCF10A [3]
  percent viability: 42.6%

## AGGGCUUAGCUGCUUGUGAGCA [hsa-miR-27a-5p]
MCF10A [1]
  one-nucleolus phenotype percent effect: 23.8%
MCF10A [2]
  5+ nucleoli phenotype percent effect: -11.3%
MCF10A [3]
  percent viability: 19.8%

## AGGGGACCAAAGAGAUAUAUAG [hsa-miR-3144-5p]
MCF10A [1]
  one-nucleolus phenotype percent effect: -9.41%
MCF10A [2]
  5+ nucleoli phenotype percent effect: 33.4%
MCF10A [3]
  percent viability: 38.1%

## AGGGGACUGGUUAAUAGAACUA [hsa-miR-4652-5p]
MCF10A [1]
  one-nucleolus phenotype percent effect: 47.2%
MCF10A [2]
  5+ nucleoli phenotype percent effect: -5.22%
MCF10A [3]
  percent viability: 14.5%

## AGGGGCUGGCUUUCCUCUGGUC [hsa-miR-185-3p]
MCF10A [1]
  one-nucleolus phenotype percent effect: 49.9%
MCF10A [2]
  5+ nucleoli phenotype percent effect: -3.46%
MCF10A [3]
  percent viability: 22.6%

## AGGGGGAAAGUUCUAUAGUCC [hsa-miR-625-5p]
MCF10A [1]
  one-nucleolus phenotype percent effect: 21.3%
MCF10A [2]
  5+ nucleoli phenotype percent effect: -16.9%
MCF10A [3]
  percent viability: 12.6%

## AGGGGGAUGGCAGAGCAAAAUU [hsa-miR-5010-5p]
MCF10A [1]
  one-nucleolus phenotype percent effect: 13.7%
MCF10A [2]
  5+ nucleoli phenotype percent effect: -7.77%
MCF10A [3]
  percent viability: 44.2%

## AGGGGGCGCAGUCACUGACGUG [hsa-miR-4697-5p]
MCF10A [1]
  one-nucleolus phenotype percent effect: 5.16%
MCF10A [2]
  5+ nucleoli phenotype percent effect: -0.0636%
MCF10A [3]
  percent viability: 18.2%

## AGGGGGCGGGCUCCGGCG [hsa-miR-4488]
MCF10A [1]
  one-nucleolus phenotype percent effect: -5.44%
MCF10A [2]
  5+ nucleoli phenotype percent effect: 8.35%
MCF10A [3]
  percent viability: 70.5%

## AGGGGGGCACUGCGCAAGCAAAGCC [hsa-miR-6885-5p]
MCF10A [1]
  one-nucleolus phenotype percent effect: 16.6%
MCF10A [2]
  5+ nucleoli phenotype percent effect: -29.8%
MCF10A [3]
  percent viability: 42.5%

## AGGGGGUAGAAAGUGGCUGAAG [hsa-miR-6835-5p]
MCF10A [1]
  one-nucleolus phenotype percent effect: 11.4%
MCF10A [2]
  5+ nucleoli phenotype percent effect: -24.3%
MCF10A [3]
  percent viability: 14.9%

## AGGGGUGCUAUCUGUGAUUGA [hsa-miR-342-5p]
MCF10A [1]
  one-nucleolus phenotype percent effect: 15.1%
MCF10A [2]
  5+ nucleoli phenotype percent effect: -43.4%
MCF10A [3]
  percent viability: 10.5%

## AGGGGUGGUGUUGGGACAGCUCCGU [hsa-miR-608]
MCF10A [1]
  one-nucleolus phenotype percent effect: 8.02%
MCF10A [2]
  5+ nucleoli phenotype percent effect: -9.99%
MCF10A [3]
  percent viability: 10.6%

## AGGGGUGUGGAAAGAGGCAGAACA [hsa-miR-6747-5p]
MCF10A [1]
  one-nucleolus phenotype percent effect: -4.28%
MCF10A [2]
  5+ nucleoli phenotype percent effect: 37.7%
MCF10A [3]
  percent viability: 40%

## AGGGUAAGCUGAACCUCUGAU [hsa-miR-555]
MCF10A [1]
  one-nucleolus phenotype percent effect: 17.6%
MCF10A [2]
  5+ nucleoli phenotype percent effect: -11.2%
MCF10A [3]
  percent viability: 32.4%

## AGGGUGGGGCUGGAGGUGGGGCU [hsa-miR-6756-5p]
MCF10A [1]
  one-nucleolus phenotype percent effect: 3.98%
MCF10A [2]
  5+ nucleoli phenotype percent effect: -11%
MCF10A [3]
  percent viability: 42%

## AGGGUGUGUGUGUUUUU [hsa-miR-4455]
MCF10A [1]
  one-nucleolus phenotype percent effect: 3.96%
MCF10A [2]
  5+ nucleoli phenotype percent effect: 13.6%
MCF10A [3]
  percent viability: 22.4%

## AGGGUGUUUCUCUCAUCUCU [hsa-miR-609]
MCF10A [1]
  one-nucleolus phenotype percent effect: -18.6%
MCF10A [2]
  5+ nucleoli phenotype percent effect: 53.7%
MCF10A [3]
  percent viability: 74%

## AGGUAGAAUGAGGCCUGACAU [hsa-miR-4650-3p]
MCF10A [1]
  one-nucleolus phenotype percent effect: 7.9%
MCF10A [2]
  5+ nucleoli phenotype percent effect: -12.9%
MCF10A [3]
  percent viability: 33.4%

## AGGUAGACUGGGAUUUGUUGUU [hsa-miR-3529-5p]
MCF10A [1]
  one-nucleolus phenotype percent effect: 27.4%
MCF10A [2]
  5+ nucleoli phenotype percent effect: -26.7%
MCF10A [3]
  percent viability: 21.7%

## AGGUCUGCAUUCAAAUCCCCAGA [hsa-miR-6503-5p]
MCF10A [1]
  one-nucleolus phenotype percent effect: 3.05%
MCF10A [2]
  5+ nucleoli phenotype percent effect: 10.7%
MCF10A [3]
  percent viability: 43.4%

## AGGUGCUCCAGGCUGGCUCACA [hsa-miR-3907]
MCF10A [1]
  one-nucleolus phenotype percent effect: 27.7%
MCF10A [2]
  5+ nucleoli phenotype percent effect: -22.2%
MCF10A [3]
  percent viability: 4.87%

## AGGUGGAUGCAAUGUGACCUCA [hsa-miR-3165]
MCF10A [1]
  one-nucleolus phenotype percent effect: 1.14%
MCF10A [2]
  5+ nucleoli phenotype percent effect: -22.9%
MCF10A [3]
  percent viability: 3.1%

From the supplement of paper PMC10899765
